The results in this text go back to the supplement of paper PMC10899765.

Details in all cases: 20 nM; 72 h
Data set [1] has as its system MCF10A. The experiment in a line: 5+ nucleoli phenotype percent effect (relative to siNT 0% and siKIF11 100%); higher = more cells with five or more nucleoli. The method, then:
(§1)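 After 72 h, cells were fixed and stained with Hoechst and anti-fibrillarin, and nucleoli per nucleus were counted with CellProfiler. Values are plate-adjusted percent effect for the one-nucleolus and 5+ nucleoli phenotypes, normalised to siNT (0%) and to the positive controls siNOL11 or siKIF11 (100%), as the mean of biological triplicates. Percent viability is the nuclei count relative to siNT.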

For data set [2], the system named is MCF10A. The data set can be described thus: percent viability (nuclei count relative to siNT); higher = more viable cells. The method, then: as §1
The test system of data set [3] is MCF10A. The data set can be described thus: one-nucleolus phenotype percent effect (relative to siNT 0% and siNOL11 100%); higher = more cells with one nucleolus (ribosome biogenesis inhibition). As for the experimental part: as §1

Consider “GUGAGUGGGAGCCGGUGGGGCUG [hsa-miR-4758-5p]”, for which, in data set [1], the “5+ nucleoli phenotype percent effect” value was found to be 48.5%. Besides, the percent viability in data set [2] was 107%. The “one-nucleolus phenotype percent effect” value in data set [3] is -17.7%.
As for “ACCCAGGUUCCCUCUGGCCGCA [hsa-miR-4726-3p]”, the “5+ nucleoli phenotype percent effect” value in data set [1] was -34.6%. Further, the percent viability in data set [2] was 23.9%. Also, the “one-nucleolus phenotype percent effect” value in data set [3] came out at 51.3%.
For “AACAUUCAACGCUGUCGGUGAGU [hsa-miR-181a-5p]”, in that order: 0.638%, 76.4% and 2.31%.
With “GCUGGUUUCAUAUGGUGGUUUAGA [hsa-miR-29b-1-5p]”, the “5+ nucleoli phenotype percent effect” value in data set [1] came to 38.2%. In addition, in data set [2], the percent viability is 100%. For the same sequence, the “one-nucleolus phenotype percent effect” value in data set [3] is -17.6%.
For UCACUCCUCUCCUCCCGUCUU [hsa-miR-483-3p], in data set [1], the “5+ nucleoli phenotype percent effect” value was -26.9%. In addition, in data set [2], the percent viability worked out at 45.3%. In addition, in data set [3], the “one-nucleolus phenotype percent effect” value turned out to be 16.3%.
With UCAGUGCAUGACAGAACUUGG [hsa-miR-152], the “5+ nucleoli phenotype percent effect” value in data set [1] was 69.9%. For the same sequence, the percent viability in data set [2] was determined as 145%. In data set [3], the “one-nucleolus phenotype percent effect” value is -26.4%.
The like results for UUCACAGUGGCUAAGUUCUGC [hsa-miR-27b-3p] were, in that order, -0.0856%, 128% and -13.3%.
As for “AUCAUAUGAACCAAACUCUAAU [hsa-miR-5007-3p]”, the “5+ nucleoli phenotype percent effect” value in data set [1] came out at 45.1%. Further, in data set [2], the percent viability was 107%. For the same sequence, the “one-nucleolus phenotype percent effect” value in data set [3] was -22.4%.
Consider AUUCUAAGUGCCUUGGCC [hsa-miR-4263], for which the “5+ nucleoli phenotype percent effect” value in data set [1] was -1.39%. Moreover, the percent viability in data set [2] is 37.3%. In addition, the “one-nucleolus phenotype percent effect” value in data set [3] was -0.791%.
On to “AGGGCUGGACUCAGCGGCGGAGCU [hsa-miR-5001-5p]”, for which, in data set [1], the “5+ nucleoli phenotype percent effect” value is -6.45%. Moreover, in data set [2], the percent viability worked out at 42.6%. Besides, in data set [3], the “one-nucleolus phenotype percent effect” value was found to be 23.3%.
For AGACACUAUACGAGUCAUAU [hsa-miR-3117-5p], in that order: 12.6%, 120% and 0.975%.
With CCGCUUUCUGAGCUGGAC [hsa-miR-4315], the “5+ nucleoli phenotype percent effect” value in data set [1] was -27.2%. The percent viability in data set [2] was determined as 25.2%. Besides, in data set [3], the “one-nucleolus phenotype percent effect” value turned out to be 34.8%.
For AUCAUGAUGGGCUCCUCGGUGU [hsa-miR-433], in that order: -11.3%, 63.2% and -2.79%.
Take “CUACUUCUACCUGUGUUAUCAU [hsa-miR-3682-5p]”: in data set [1], the “5+ nucleoli phenotype percent effect” value is -33%. Further, the percent viability in data set [2] is 25.2%. For the same sequence, in data set [3], the “one-nucleolus phenotype percent effect” value stood at 19.8%.
Turning to “UGAUCAGGCAAAAUUGCAGACU [hsa-miR-4772-5p]”, the “5+ nucleoli phenotype percent effect” value in data set [1] was determined as 47.2%. In data set [2], the percent viability turned out to be 17%. Moreover, in data set [3], the “one-nucleolus phenotype percent effect” value amounted to 9.01%.
In the case of UGCUAUGCCAACAUAUUGCCAU [hsa-miR-31-3p], the “5+ nucleoli phenotype percent effect” value in data set [1] is -33.1%. Further, the percent viability in data set [2] came out at 34.2%. Further, the “one-nucleolus phenotype percent effect” value in data set [3] is 27.9%.
For “UUCCAUGCCUCCUAGAAGUUCC [hsa-miR-5581-3p]”, in that order: 13.6%, 57.3% and -19.3%.
The like results for “UUCGGGCUGGCCUGCUGCUCCGG [hsa-miR-3944-3p]” were, in that order, 17.5%, 30.8% and -7.09%.
The like results for CAGCGGAGCCUGGAGAGAAGG [hsa-miR-7846-3p] were, in that order, -18.4%, 41.6% and 11.9%.
In the case of “UGUCAGUGACUCCUGCCCCUUGGU [hsa-miR-4697-3p]”, the “5+ nucleoli phenotype percent effect” value in data set [1] turned out to be 3.98%. For the same sequence, the percent viability in data set [2] was 98.6%. Further, in data set [3], the “one-nucleolus phenotype percent effect” value is -7.45%.
The like results for “UAUAGGGAUUGGAGCCGUGGCG [hsa-miR-135a-3p]” were, in that order, 4.73%, 63.5% and 13.5%.
For the sequence UCUUCUCUGUUUUGGCCAUGUG [hsa-miR-942], in data set [1], the “5+ nucleoli phenotype percent effect” value was determined as 12.1%. In addition, the percent viability in data set [2] was found to be 73.4%. Also, in data set [3], the “one-nucleolus phenotype percent effect” value was -0.685%.
For “CCUUCACUGUGACUCUGCUGCAG [hsa-miR-6837-3p]”, in that order: 50.7%, 180% and -30.8%.
Turning to CAUCAUCGUCUCAAAUGAGUCU [hsa-miR-136-3p], the “5+ nucleoli phenotype percent effect” value in data set [1] worked out at 22.1%. For the same sequence, the percent viability in data set [2] came out at 37.4%. In data set [3], the “one-nucleolus phenotype percent effect” value was -9.83%.
Turning to “CUGGGAGGUGUGAUAUUGUGGU [hsa-miR-3689b-3p]”, the “5+ nucleoli phenotype percent effect” value in data set [1] is -12.6%. Further, in data set [2], the percent viability came out at 11.3%. Further, the “one-nucleolus phenotype percent effect” value in data set [3] was 33.2%.
As for AAGGCAGGGCCCCCGCUCCCC [hsa-miR-940], the “5+ nucleoli phenotype percent effect” value in data set [1] is -29.5%. In data set [2], the percent viability stood at 12.8%. Further, the “one-nucleolus phenotype percent effect” value in data set [3] worked out at 45.5%.
For “UCUGCCAUAGGAAGCUUGGAGUGG [hsa-miR-6817-5p]”, in data set [1], the “5+ nucleoli phenotype percent effect” value was 1.17%. Moreover, the percent viability in data set [2] came out at 65.4%. In data set [3], the “one-nucleolus phenotype percent effect” value was -25%.
“UGGGCCAGGGAGCAGCUGGUGGG [hsa-miR-4640-5p]”: in data set [1], the “5+ nucleoli phenotype percent effect” value turned out to be 7.66%. Besides, the percent viability in data set [2] is 54.9%. Moreover, the “one-nucleolus phenotype percent effect” value in data set [3] worked out at 15.3%.
For AAAGAUGGACAAUUGGCUAAAU [hsa-miR-4662b], in that order: -25.7%, 38.3% and 49.4%.
In the case of AGGUGGAUGCAAUGUGACCUCA [hsa-miR-3165], the “5+ nucleoli phenotype percent effect” value in data set [1] was -22.9%. For the same sequence, in data set [2], the percent viability was determined as 3.1%. Further, in data set [3], the “one-nucleolus phenotype percent effect” value is 1.14%.
Turning to UGCAGGACCAAGAUGAGCCCU [hsa-miR-1286], the “5+ nucleoli phenotype percent effect” value in data set [1] is 1.93%. Moreover, the percent viability in data set [2] is 35.9%. The “one-nucleolus phenotype percent effect” value in data set [3] was 5.46%.
The like results for GGUGGGCUUCCCGGAGGG [hsa-miR-4417] were, in that order, 35.5%, 77.8% and -24.2%.
With UCUAUUCCCCACUCUCCCCAG [hsa-miR-6731-3p], the “5+ nucleoli phenotype percent effect” value in data set [1] is -13.6%. Moreover, in data set [2], the percent viability was 32.5%. Besides, in data set [3], the “one-nucleolus phenotype percent effect” value was -0.0733%.
On to “UUAGCCAAUUGUCCAUCUUUAG [hsa-miR-4662a-5p]”, for which the “5+ nucleoli phenotype percent effect” value in data set [1] was found to be 1.03%. Also, the percent viability in data set [2] is 33.5%. Moreover, the “one-nucleolus phenotype percent effect” value in data set [3] came out at 9.07%.
The like results for UGGAGUGUGACAAUGGUGUUUG [hsa-miR-122-5p] were, in that order, 14.4%, 52.7% and -11.4%.
Take “UCCCUGAGACCCUAACUUGUGA [hsa-miR-125b-5p]”: the “5+ nucleoli phenotype percent effect” value in data set [1] is 17.3%. Moreover, in data set [2], the percent viability turned out to be 93.8%. The “one-nucleolus phenotype percent effect” value in data set [3] is -11.8%.
